Source: the supplement of paper PMC10567573

B1: HNF4A (parent)
chain: RFSRQCVVDKDKRNQCRYCRLKKC

Variants of: B1
Assay: protein stability index of a GFP-peptide fusion (GPS, HEK-293T) (PSI 1-6); higher = more stable
Settings: c terminus: a fixed tail appended
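Also: lentivirally expressed fusions sorted by FACS into six bins by GFP to DsRed ratio, PSI derived from sequencing read proportions per bin multiplied by bin number.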

Variant	protein stability index
RFSRQCVVDKQKRNQCRYCRLKKC [D11Q]	2.63
RFSRQCVVDKKKRNQCRYCRLKKC [D11K]	2.4
RFSRQCVVDKMKRNQCRYCRLKKC [D11M]	2.65
RFSRQCVVDKEKRNQCRYCRLKKC [D11E]	2.19
RFSRQCVVDKAKRNQCRYCRLKKC [D11A]	2.28
RFSRQCVVDKLKRNQCRYCRLKKC [D11L]	2.21
RFSRQCVVDKCKRNQCRYCRLKKC [D11C]	3.51
RFSRQCVVDKFKRNQCRYCRLKKC [D11F]	2.63
RFSRQCVVDKSKRNQCRYCRLKKC [D11S]	2.04
RFSRQCVVDKVKRNQCRYCRLKKC [D11V]	2.37
RFSRQCVVDKGKRNQCRYCRLKKC [D11G]	2.55
RFSRQCVVDKYKRNQCRYCRLKKC [D11Y]	2.45
RFSRQCVVDKHKRNQCRYCRLKKC [D11H]	2.97
RFSRQCVVDKPKRNQCRYCRLKKC [D11P]	2.9
RFSRQCVVDKNKRNQCRYCRLKKC [D11N]	2.4
RFSRQCVVDKIKRNQCRYCRLKKC [D11I]	2.41
RFSRQCVVDKTKRNQCRYCRLKKC [D11T]	2.32
RFSRQCVVDKRKRNQCRYCRLKKC [D11R]	2.65
RFSRQCVVIKDKRNQCRYCRLKKC [D9I]	2.12
RFSRQCVVNKDKRNQCRYCRLKKC [D9N]	2.67
RFSRQCVVKKDKRNQCRYCRLKKC [D9K]	2.13
RFSRQCVVLKDKRNQCRYCRLKKC [D9L]	1.92
RFSRQCVVEKDKRNQCRYCRLKKC [D9E]	2.52
RFSRQCVVCKDKRNQCRYCRLKKC [D9C]	2.69

Variant	protein stability index
RFSRQCVVYKDKRNQCRYCRLKKC [D9Y]	2.33
RFSRQCVVHKDKRNQCRYCRLKKC [D9H]	3.9
RFSRQCVVAKDKRNQCRYCRLKKC [D9A]	2.07
RFSRQCVVWKDKRNQCRYCRLKKC [D9W]	1.68
RFSRQCVVRKDKRNQCRYCRLKKC [D9R]	3.01
RFSRQCVVFKDKRNQCRYCRLKKC [D9F]	2.13
RFSRQCVVQKDKRNQCRYCRLKKC [D9Q]	2.78
RFSRQCVVMKDKRNQCRYCRLKKC [D9M]	3.42
RFSRQCVVGKDKRNQCRYCRLKKC [D9G]	3.04
RFSRQCVVPKDKRNQCRYCRLKKC [D9P]	2.48
RFSRQCVVTKDKRNQCRYCRLKKC [D9T]	2.27
RFSRQCVVSKDKRNQCRYCRLKKC [D9S]	2.92
RFSRQCVVVKDKRNQCRYCRLKKC [D9V]	2.33
RFSRQCVVDKDKRNQARYCRLKKC [C16A]	2.56
RFSRQCVVDKDKRNQHRYCRLKKC [C16H]	3.9
RFSRQCVVDKDKRNQKRYCRLKKC [C16K]	3.1
RFSRQCVVDKDKRNQGRYCRLKKC [C16G]	2.61
RFSRQCVVDKDKRNQIRYCRLKKC [C16I]	2.93
RFSRQCVVDKDKRNQFRYCRLKKC [C16F]	2.97
RFSRQCVVDKDKRNQLRYCRLKKC [C16L]	2.92
RFSRQCVVDKDKRNQERYCRLKKC [C16E]	4.05
RFSRQCVVDKDKVNQCRYCRLKKC [R13V]	2.7
RFSRQCVVDKDKDNQCRYCRLKKC [R13D]	3.2
RFSRQCVVDKDKFNQCRYCRLKKC [R13F]	2.56

Variant	protein stability index
RFSRQCVVDKDKGNQCRYCRLKKC [R13G]	2.21
RFSRQCVVDKDKMNQCRYCRLKKC [R13M]	3.02
RFSRQCVVDKDKHNQCRYCRLKKC [R13H]	2.98
RFSRQCVVDKDKQNQCRYCRLKKC [R13Q]	2.83
RFSRQCVVDKDKANQCRYCRLKKC [R13A]	2.11
RFSRQCVVDKDKCNQCRYCRLKKC [R13C]	3.06
RFSRQCVVDKDKTNQCRYCRLKKC [R13T]	2.99
RFSRQCVVDKDKENQCRYCRLKKC [R13E]	2.02
RFSRQCVVDKDKKNQCRYCRLKKC [R13K]	2.4
RFSRQCVVDKDKINQCRYCRLKKC [R13I]	2.38
RFSRQCVVDKDKYNQCRYCRLKKC [R13Y]	2.76
RFSRQCVVDKDKLNQCRYCRLKKC [R13L]	2.22
RFSRQCVVDKDKPNQCRYCRLKKC [R13P]	1.84
RFSRQCVVDKDKWNQCRYCRLKKC [R13W]	1.93
RFSRQCVVDKDKNNQCRYCRLKKC [R13N]	3.03
RFSRQCVVDKDKSNQCRYCRLKKC [R13S]	2.65
RFSRQCVVDKDNRNQCRYCRLKKC [K12N]	2.41
RFSRQCVVDKDCRNQCRYCRLKKC [K12C]	2.07
RFSRQCVVDKDIRNQCRYCRLKKC [K12I]	2.54
RFSRQCVVDKDQRNQCRYCRLKKC [K12Q]	2.52
RFSRQCVVDKDGRNQCRYCRLKKC [K12G]	2.76
RFSRQCVVDKDVRNQCRYCRLKKC [K12V]	1.99
RFSRQCVVDKDYRNQCRYCRLKKC [K12Y]	2.25
RFSRQCVVDKDTRNQCRYCRLKKC [K12T]	2.85

Variant	protein stability index
RFSRQCVVDKDPRNQCRYCRLKKC [K12P]	2.76
RFSRQCVVDKDDRNQCRYCRLKKC [K12D]	2.13
RFSRQCVVDKDARNQCRYCRLKKC [K12A]	1.51
RFSRQCVVDKDMRNQCRYCRLKKC [K12M]	1.97
RFSRQCVVDKDWRNQCRYCRLKKC [K12W]	2.28
RFSRQCVVDKDFRNQCRYCRLKKC [K12F]	2.25
RFSRQCVVDKDLRNQCRYCRLKKC [K12L]	1.91
RFSRQCVVDKDHRNQCRYCRLKKC [K12H]	2.93
RFSRQCVVDKDSRNQCRYCRLKKC [K12S]	2
RFSRQCVVDIDKRNQCRYCRLKKC [K10I]	1.75
RFSRQCVVDCDKRNQCRYCRLKKC [K10C]	2.25
RFSRQCVVDGDKRNQCRYCRLKKC [K10G]	2.55
RFSRQCVVDYDKRNQCRYCRLKKC [K10Y]	2.82
RFSRQCVVDWDKRNQCRYCRLKKC [K10W]	2.59
RFSRQCVVDHDKRNQCRYCRLKKC [K10H]	2.79
RFSRQCVVDMDKRNQCRYCRLKKC [K10M]	2.9
RFSRQCVVDQDKRNQCRYCRLKKC [K10Q]	2.95
RFSRQCVVDVDKRNQCRYCRLKKC [K10V]	2.47
RFSRQCVVDFDKRNQCRYCRLKKC [K10F]	1.98
RFSRQCVVDEDKRNQCRYCRLKKC [K10E]	2.14
RFSRQCVVDLDKRNQCRYCRLKKC [K10L]	2.37
RFSRQCVVDNDKRNQCRYCRLKKC [K10N]	2.43
RFSRQCVVDADKRNQCRYCRLKKC [K10A]	1.7
RFSRQCVVDTDKRNQCRYCRLKKC [K10T]	2.41

Variant	protein stability index
RFSRQCVVDSDKRNQCRYCRLKKC [K10S]	2.02
RFSRQCVVDPDKRNQCRYCRLKKC [K10P]	2.8
RFSRQCVVDRDKRNQCRYCRLKKC [K10R]	2.78
RFSRQCVVDDDKRNQCRYCRLKKC [K10D]	2.49
RFSRQCIVDKDKRNQCRYCRLKKC [V7I]	2.13
RFSRQCYVDKDKRNQCRYCRLKKC [V7Y]	2.93
RFSRQCDVDKDKRNQCRYCRLKKC [V7D]	4.05
RFSRQCGVDKDKRNQCRYCRLKKC [V7G]	2.37
RFSRQCNVDKDKRNQCRYCRLKKC [V7N]	2.21
RFSRQCMVDKDKRNQCRYCRLKKC [V7M]	2.41
RFSRQCKVDKDKRNQCRYCRLKKC [V7K]	2.6
RFSRQCHVDKDKRNQCRYCRLKKC [V7H]	2.38
RFSRQCQVDKDKRNQCRYCRLKKC [V7Q]	2.05
RFSRQCPVDKDKRNQCRYCRLKKC [V7P]	2.96
RFSRQCAVDKDKRNQCRYCRLKKC [V7A]	2.4
RFSRQCCVDKDKRNQCRYCRLKKC [V7C]	2.62
RFSRQCLVDKDKRNQCRYCRLKKC [V7L]	2.48
RFSRQCTVDKDKRNQCRYCRLKKC [V7T]	2.73
RFSRQCSVDKDKRNQCRYCRLKKC [V7S]	2.1
RFSRQCRVDKDKRNQCRYCRLKKC [V7R]	2.4
RFSRQCEVDKDKRNQCRYCRLKKC [V7E]	2.05
RFSRQCFVDKDKRNQCRYCRLKKC [V7F]	1.94
RFSRQCWVDKDKRNQCRYCRLKKC [V7W]	2.47
RFSRQCVCDKDKRNQCRYCRLKKC [V8C]	3.21

Variant	protein stability index
RFSRQCVADKDKRNQCRYCRLKKC [V8A]	2
RFSRQCVMDKDKRNQCRYCRLKKC [V8M]	2.56
RFSRQCVQDKDKRNQCRYCRLKKC [V8Q]	2.66
RFSRQCVTDKDKRNQCRYCRLKKC [V8T]	2.6
RFSRQCVEDKDKRNQCRYCRLKKC [V8E]	2.19
RFSRQCVFDKDKRNQCRYCRLKKC [V8F]	2.38
RFSRQCVIDKDKRNQCRYCRLKKC [V8I]	2.9
RFSRQCVDDKDKRNQCRYCRLKKC [V8D]	2.8
RFSRQCVKDKDKRNQCRYCRLKKC [V8K]	2.86
RFSRQCVPDKDKRNQCRYCRLKKC [V8P]	2.38
RFSRQCVRDKDKRNQCRYCRLKKC [V8R]	3.24
RFSRQCVWDKDKRNQCRYCRLKKC [V8W]	2.4
RFSRQCVSDKDKRNQCRYCRLKKC [V8S]	2.48
RFSRQCVHDKDKRNQCRYCRLKKC [V8H]	3.87
RFSRQCVYDKDKRNQCRYCRLKKC [V8Y]	2.98
RFSRQCVNDKDKRNQCRYCRLKKC [V8N]	1.86
RFSRQCVVDKDKRNSCRYCRLKKC [Q15S]	2.79
RFSRQCVVDKDKRNFCRYCRLKKC [Q15F]	2.12
RFSRQCVVDKDKRNACRYCRLKKC [Q15A]	2.47
RFSRQCVVDKDKRNPCRYCRLKKC [Q15P]	2.21
RFSRQCVVDKDKRNMCRYCRLKKC [Q15M]	2.48
RFSRQCVVDKDKRNLCRYCRLKKC [Q15L]	2.78
RFSRQCVVDKDKRNCCRYCRLKKC [Q15C]	2.8
RFSRQCVVDKDKRNHCRYCRLKKC [Q15H]	1.96

Variant	protein stability index
RFSRQCVVDKDKRNDCRYCRLKKC [Q15D]	2.89
RFSRQCVVDKDKRNYCRYCRLKKC [Q15Y]	2.48
RFSRQCVVDKDKRNTCRYCRLKKC [Q15T]	2.68
RFSRQCVVDKDKRNICRYCRLKKC [Q15I]	2.33
RFSRQCVVDKDKRNKCRYCRLKKC [Q15K]	2.85
RFSRQCVVDKDKRNRCRYCRLKKC [Q15R]	2.73
RFSRQCVVDKDKRNGCRYCRLKKC [Q15G]	2.37
RFSRQCVVDKDKRNECRYCRLKKC [Q15E]	2.34
RFSRQCVVDKDKRNVCRYCRLKKC [Q15V]	2.52
RFSRQGVVDKDKRNQCRYCRLKKC [C6G]	2.87
RFSRQSVVDKDKRNQCRYCRLKKC [C6S]	2.72
RFSRQEVVDKDKRNQCRYCRLKKC [C6E]	2.82
RFSRQIVVDKDKRNQCRYCRLKKC [C6I]	2.33
RFSRQVVVDKDKRNQCRYCRLKKC [C6V]	2.62
RFSRQKVVDKDKRNQCRYCRLKKC [C6K]	3.17
RFSRQPVVDKDKRNQCRYCRLKKC [C6P]	2.72
RFSRQTVVDKDKRNQCRYCRLKKC [C6T]	2.29
RFSRQLVVDKDKRNQCRYCRLKKC [C6L]	1.99
RFSRQFVVDKDKRNQCRYCRLKKC [C6F]	2.89
RFSRQWVVDKDKRNQCRYCRLKKC [C6W]	1.29
RFSRQRVVDKDKRNQCRYCRLKKC [C6R]	2.6
RFSRQHVVDKDKRNQCRYCRLKKC [C6H]	2.77
RFSRQNVVDKDKRNQCRYCRLKKC [C6N]	2.86
RFSRQMVVDKDKRNQCRYCRLKKC [C6M]	2

Variant	protein stability index
RFSRQYVVDKDKRNQCRYCRLKKC [C6Y]	2.32
RFSRQQVVDKDKRNQCRYCRLKKC [C6Q]	3.36
RFSRQCVVDKDKRAQCRYCRLKKC [N14A]	1.5
RFSRQCVVDKDKRLQCRYCRLKKC [N14L]	2.87
RFSRQCVVDKDKRTQCRYCRLKKC [N14T]	2.31
RFSRQCVVDKDKRDQCRYCRLKKC [N14D]	2.24
RFSRQCVVDKDKRYQCRYCRLKKC [N14Y]	3.62
RFSRQCVVDKDKRKQCRYCRLKKC [N14K]	2.23
RFSRQCVVDKDKRWQCRYCRLKKC [N14W]	2.27
RFSRQCVVDKDKRHQCRYCRLKKC [N14H]	3.45
RFSRQCVVDKDKRVQCRYCRLKKC [N14V]	2.6
RFSRQCVVDKDKREQCRYCRLKKC [N14E]	2.95
RFSRQCVVDKDKRQQCRYCRLKKC [N14Q]	2.18
RFSRQCVVDKDKRGQCRYCRLKKC [N14G]	2.57
RFSRQCVVDKDKRCQCRYCRLKKC [N14C]	3.46
RFSRQCVVDKDKRFQCRYCRLKKC [N14F]	2.16
RFSRQCVVDKDKRPQCRYCRLKKC [N14P]	2.72
RFSRQCVVDKDKRMQCRYCRLKKC [N14M]	1.98
RFSRQCVVDKDKRIQCRYCRLKKC [N14I]	2.39
RFSRQCVVDKDKRSQCRYCRLKKC [N14S]	2.96
